Measurements taken from publication PMC6005420, “A low-complexity region in the YTH domain protein Mmi1 enhances RNA binding”.

Experiments:
[1] = test system: Mmi1 YTH-ΔN (Schizosaccharomyces pombe); assay: SwitchSENSE; conditions: 40 mM NaCl; RNA-DNA chimera: 15-mer DSRshort followed by 42 deoxyribonucleotides; FP: 10 mM TAPS pH 8.2, 2 mM PIPES, 50 or 150 mM NaCl, 0.5 mM MgAc, 0.1 mM TCEP, 0.01% Brij-35, room temperature, 0.1 nM RNA; EMSA: 20 mM HEPES pH 7.5, 100 mM …
[2] = test system: Mmi1 YTH-ΔC (Schizosaccharomyces pombe); assay: SwitchSENSE; conditions: 40 mM NaCl; RNA-DNA chimera: 15-mer DSRshort followed by 42 deoxyribonucleotides; FP: 10 mM TAPS pH 8.2, 2 mM PIPES, 50 or 150 mM NaCl, 0.5 mM MgAc, 0.1 mM TCEP, 0.01% Brij-35, room temperature, 0.1 nM RNA; EMSA: 20 mM HEPES pH 7.5, 100 mM …
[3] = test system: Mmi1 YTH-ΔNΔC (Schizosaccharomyces pombe); assay: SwitchSENSE; conditions: 40 mM NaCl; RNA-DNA chimera: 15-mer DSRshort followed by 42 deoxyribonucleotides; FP: 10 mM TAPS pH 8.2, 2 mM PIPES, 50 or 150 mM NaCl, 0.5 mM MgAc, 0.1 mM TCEP, 0.01% Brij-35, room temperature, 0.1 nM RNA; EMSA: 20 mM HEPES pH 7.5, 100 mM …
Mmi1 USR-YTH [4] = biological target: T1, Mmi1 USR-YTH (Schizosaccharomyces pombe, UniProt O74958 282-488); assay: SwitchSENSE; conditions: 40 mM NaCl; RNA-DNA chimera: 15-mer DSRshort followed by 42 deoxyribonucleotides; FP: 10 mM TAPS pH 8.2, 2 mM PIPES, 50 or 150 mM NaCl, 0.5 mM MgAc, 0.1 mM TCEP, 0.01% Brij-35, room temperature, 0.1 nM RNA; EMSA: 20 mM HEPES pH 7.5, 100 mM …
T1 sequence: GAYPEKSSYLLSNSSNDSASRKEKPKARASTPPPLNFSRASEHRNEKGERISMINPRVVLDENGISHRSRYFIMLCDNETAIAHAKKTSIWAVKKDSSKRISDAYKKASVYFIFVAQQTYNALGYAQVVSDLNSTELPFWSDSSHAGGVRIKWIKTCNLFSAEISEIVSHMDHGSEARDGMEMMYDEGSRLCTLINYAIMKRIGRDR

Mmi1 YTH [5] = biological target: T2, Mmi1 YTH (Schizosaccharomyces pombe, UniProt O74958 327-488); assay: SwitchSENSE; conditions: 40 mM NaCl; RNA-DNA chimera: 15-mer DSRshort followed by 42 deoxyribonucleotides; FP: 10 mM TAPS pH 8.2, 2 mM PIPES, 50 or 150 mM NaCl, 0.5 mM MgAc, 0.1 mM TCEP, 0.01% Brij-35, room temperature, 0.1 nM RNA; EMSA: 20 mM HEPES pH 7.5, 100 mM …
T2 sequence: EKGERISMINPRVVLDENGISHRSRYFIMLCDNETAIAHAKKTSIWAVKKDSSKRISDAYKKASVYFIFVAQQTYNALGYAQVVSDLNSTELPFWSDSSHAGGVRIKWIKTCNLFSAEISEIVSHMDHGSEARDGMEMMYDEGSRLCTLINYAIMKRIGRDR

Mmi1(301-488) = biological target: T3, Mmi1(301-488) (Schizosaccharomyces pombe, UniProt O74958 301-488); assay: X-ray crystallography; FP: 10 mM TAPS pH 8.2, 2 mM PIPES, 50 or 150 mM NaCl, 0.5 mM MgAc, 0.1 mM TCEP, 0.01% Brij-35, room temperature, 0.1 nM RNA; EMSA: 20 mM HEPES pH 7.5, 100 mM NaCl (plus 30 mM from protein buffer), 1 mM MgAc, 0.1 mM TCEP, 5% glycerol, 50 nM RNA, 15 min; SwitchSENSE: 40 mM NaCl; conditions: protein: recombinant; tags: N-terminal His6, 3C-cleaved
T3 sequence: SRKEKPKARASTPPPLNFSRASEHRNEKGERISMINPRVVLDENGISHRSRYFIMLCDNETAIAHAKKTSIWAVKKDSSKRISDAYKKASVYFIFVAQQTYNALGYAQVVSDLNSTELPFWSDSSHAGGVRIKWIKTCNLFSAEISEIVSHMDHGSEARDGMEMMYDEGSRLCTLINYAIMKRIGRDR

Mmi1 USR-YTH [6] = biological target: T1, Mmi1 USR-YTH; assay: NMR; FP: 10 mM TAPS pH 8.2, 2 mM PIPES, 50 or 150 mM NaCl, 0.5 mM MgAc, 0.1 mM TCEP, 0.01% Brij-35, room temperature, 0.1 nM RNA; EMSA: 20 mM HEPES pH 7.5, 100 mM NaCl (plus 30 mM from protein buffer), 1 mM MgAc, 0.1 mM TCEP, 5% glycerol, 50 nM RNA, 15 min; SwitchSENSE: 40 mM NaCl; conditions: protein: recombinant; tags: N-terminal His6, 3C-cleaved
Mmi1 USR-YTH [7] = biological target: T1, Mmi1 USR-YTH; assay: fluorescence polarization; 150 mM NaCl; FP: 10 mM TAPS pH 8.2, 2 mM PIPES, 50 or 150 mM NaCl, 0.5 mM MgAc, 0.1 mM TCEP, 0.01% Brij-35, room temperature, 0.1 nM RNA; EMSA: 20 mM HEPES pH 7.5, 100 mM NaCl (plus 30 mM from protein buffer), 1 mM MgAc, 0.1 mM TCEP, 5% glycerol, 50 nM RNA, 15 min; SwitchSENSE: 40 mM NaCl; conditions: protein: recombinant; tags: N-terminal His6, 3C-cleaved; label: 3'-6-carboxyfluorescein
Mmi1 YTH [8] = biological target: T2, Mmi1 YTH; assay: as above; conditions: protein: recombinant; tags: N-terminal His6, 3C-cleaved; label: 3'-6-carboxyfluorescein
Mmi1 USR-YTH [9] = biological target: T1, Mmi1 USR-YTH; assay: fluorescence polarization; 50 mM NaCl; FP: 10 mM TAPS pH 8.2, 2 mM PIPES, 50 or 150 mM NaCl, 0.5 mM MgAc, 0.1 mM TCEP, 0.01% Brij-35, room temperature, 0.1 nM RNA; EMSA: 20 mM HEPES pH 7.5, 100 mM NaCl (plus 30 mM from protein buffer), 1 mM MgAc, 0.1 mM TCEP, 5% glycerol, 50 nM RNA, 15 min; SwitchSENSE: 40 mM NaCl; conditions: protein: recombinant; tags: N-terminal His6, 3C-cleaved; label: 3'-6-carboxyfluorescein
Mmi1 YTH [10] = biological target: T2, Mmi1 YTH; assay: as above; conditions: protein: recombinant; tags: N-terminal His6, 3C-cleaved; label: 3'-6-carboxyfluorescein
Mmi1 USR-YTH [11] = biological target: T1, Mmi1 USR-YTH; assay: EMSA; FP: 10 mM TAPS pH 8.2, 2 mM PIPES, 50 or 150 mM NaCl, 0.5 mM MgAc, 0.1 mM TCEP, 0.01% Brij-35, room temperature, 0.1 nM RNA; EMSA: 20 mM HEPES pH 7.5, 100 mM NaCl (plus 30 mM from protein buffer), 1 mM MgAc, 0.1 mM TCEP, 5% glycerol, 50 nM RNA, 15 min; SwitchSENSE: 40 mM NaCl; conditions: protein: recombinant; tags: N-terminal His6, 3C-cleaved; label: 3'-fluorescein

For DSRshort-DNA chimera for SwitchSENSE, which Kd [1] is on record?
The Kd was 15000 nM.

And the Kd [2]?
The Kd was 160 nM.

What about the Kd [3] of the same molecule?
Its Kd is 51000 nM.

What about the Kd (Mmi1 USR-YTH [4]) of the same molecule?
The Kd was 0.09 nM.

And the Kd (Mmi1 YTH [5])?
Its Kd is 16 nM.

Does CUUUAAACCUA (ssRNA) [11-mer DSR RNA] bind (Mmi1(301-488))?
Result: binds

Does UUAAACC (ssRNA) [7-mer DSR RNA] bind (Mmi1 USR-YTH [6])?
Result: binds

Does UUAAACC (ssRNA) [7-mer DSR RNA] bind (Mmi1(301-488))?
Result: binds

For UCUUAAACCAGUCAC (ssRNA) [DSRshort (15-mer)], which Kd (Mmi1 USR-YTH [7]) is on record?
Its Kd is 6.1 ± 0.7 nM.

What about the Kd (Mmi1 YTH [8]) of the same molecule?
The Kd was 154 ± 85 nM.

What about the Kd (Mmi1 USR-YTH [9]) of the same molecule?
The Kd was 0.14 ± 0.01 nM.

What about the Kd (Mmi1 YTH [10]) of the same molecule?
The Kd was 42 ± 18 nM.

Does GUGUCUCUUUAAACCUAAAAAGCAC (ssRNA) [rec8DSR] bind (Mmi1 USR-YTH [11])?
Result: binds
